Results published in US20140274782A1, “AFFINITY REAGENTS AND METHODS FOR DETECTION, PURIFICATION, AND PROTEOMIC ANALYSIS OF METHYLATED PROTEINS” (The Board of Trustees of the Leland Stanford Junior …, priority 2013, published 2014).
Several values for one entry are separate records, joined by “and”; a condition that tells them apart may be missing. Equal values may be shown once.

Assays:
3×MBT domain of L3MBTL1 = test: Triple SILAC pull-down, 3xMBT/3xMBTD355N ratio (cytoplasmic, nuclear and chromatin fractions of 293T cells); assay type: binding, human; settings: for 3xMBT/D355N UNC Heavy: experiment with UNC0638 in heavy SILAC media; for 3xMBT/D355N UNC Light: experiment with UNC0638 in light SILAC media;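 for all read-outs here: proteins quantified with MaxQuant, requiring at least two unique peptides and quantification in both label directions, normalized to the mean of proteins from a digested loading control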
G9a and GLP = target: T1, G9a and GLP (Homo sapiens, UniProt Q96KQ7+Q9H9B1); test: Triple SILAC pull-down after UNC0638 treatment of 293T cells, DMSO/UNC0638 ratio of protein captured by 3×MBT; assay type: cell-based; settings: for Relative to UNC0638 UNC Heavy: UNC0638 in heavy SILAC media; for Relative to UNC0638 UNC Light: UNC0638 in light SILAC media; for Relative to UNC0638 Average: average of UNC Light and UNC Heavy experiments;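 for all read-outs here: mass spectrometry (Q-Exactive) SILAC quantitation, DMSO/UNC0638 ratio computed after subtracting 3×MBTD355N mutant pull-down background, only proteins with at least twofold 3×MBT over mutant signal considered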
T1 construct: endogenous in cells; host or cells: HEK 293T
T1 sequence (Q96KQ7 2-1210 limits assumed): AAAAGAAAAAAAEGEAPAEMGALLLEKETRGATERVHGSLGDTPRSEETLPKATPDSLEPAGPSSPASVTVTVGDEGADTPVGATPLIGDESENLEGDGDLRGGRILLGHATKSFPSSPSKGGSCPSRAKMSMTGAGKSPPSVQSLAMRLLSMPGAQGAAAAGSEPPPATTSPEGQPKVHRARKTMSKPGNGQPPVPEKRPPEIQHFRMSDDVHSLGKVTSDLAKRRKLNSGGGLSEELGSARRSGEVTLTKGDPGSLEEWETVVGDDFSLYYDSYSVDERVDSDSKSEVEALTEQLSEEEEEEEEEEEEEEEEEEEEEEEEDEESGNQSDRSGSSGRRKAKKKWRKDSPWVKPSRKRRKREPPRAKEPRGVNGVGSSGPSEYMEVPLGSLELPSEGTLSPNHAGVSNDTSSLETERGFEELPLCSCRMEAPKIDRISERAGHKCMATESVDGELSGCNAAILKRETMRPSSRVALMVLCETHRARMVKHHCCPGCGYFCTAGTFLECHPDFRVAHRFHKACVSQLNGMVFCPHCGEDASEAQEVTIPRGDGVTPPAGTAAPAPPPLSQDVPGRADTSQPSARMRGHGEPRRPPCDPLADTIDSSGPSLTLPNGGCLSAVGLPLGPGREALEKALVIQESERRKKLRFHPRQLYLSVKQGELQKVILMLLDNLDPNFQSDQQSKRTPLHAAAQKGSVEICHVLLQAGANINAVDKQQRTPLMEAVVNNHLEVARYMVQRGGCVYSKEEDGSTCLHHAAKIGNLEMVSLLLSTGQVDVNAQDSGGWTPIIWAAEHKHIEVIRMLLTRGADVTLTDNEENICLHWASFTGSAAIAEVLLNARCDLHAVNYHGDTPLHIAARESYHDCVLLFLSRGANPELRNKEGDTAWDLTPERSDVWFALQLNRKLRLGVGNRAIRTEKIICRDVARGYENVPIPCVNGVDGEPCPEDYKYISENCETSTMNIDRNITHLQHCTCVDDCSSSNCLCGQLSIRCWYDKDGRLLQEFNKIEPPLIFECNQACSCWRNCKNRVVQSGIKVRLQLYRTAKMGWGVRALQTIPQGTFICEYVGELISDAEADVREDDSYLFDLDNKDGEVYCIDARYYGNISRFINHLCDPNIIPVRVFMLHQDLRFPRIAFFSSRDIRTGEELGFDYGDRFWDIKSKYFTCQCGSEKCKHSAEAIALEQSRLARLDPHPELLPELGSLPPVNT
T1 sequence (Q9H9B1 2-1298 limits assumed): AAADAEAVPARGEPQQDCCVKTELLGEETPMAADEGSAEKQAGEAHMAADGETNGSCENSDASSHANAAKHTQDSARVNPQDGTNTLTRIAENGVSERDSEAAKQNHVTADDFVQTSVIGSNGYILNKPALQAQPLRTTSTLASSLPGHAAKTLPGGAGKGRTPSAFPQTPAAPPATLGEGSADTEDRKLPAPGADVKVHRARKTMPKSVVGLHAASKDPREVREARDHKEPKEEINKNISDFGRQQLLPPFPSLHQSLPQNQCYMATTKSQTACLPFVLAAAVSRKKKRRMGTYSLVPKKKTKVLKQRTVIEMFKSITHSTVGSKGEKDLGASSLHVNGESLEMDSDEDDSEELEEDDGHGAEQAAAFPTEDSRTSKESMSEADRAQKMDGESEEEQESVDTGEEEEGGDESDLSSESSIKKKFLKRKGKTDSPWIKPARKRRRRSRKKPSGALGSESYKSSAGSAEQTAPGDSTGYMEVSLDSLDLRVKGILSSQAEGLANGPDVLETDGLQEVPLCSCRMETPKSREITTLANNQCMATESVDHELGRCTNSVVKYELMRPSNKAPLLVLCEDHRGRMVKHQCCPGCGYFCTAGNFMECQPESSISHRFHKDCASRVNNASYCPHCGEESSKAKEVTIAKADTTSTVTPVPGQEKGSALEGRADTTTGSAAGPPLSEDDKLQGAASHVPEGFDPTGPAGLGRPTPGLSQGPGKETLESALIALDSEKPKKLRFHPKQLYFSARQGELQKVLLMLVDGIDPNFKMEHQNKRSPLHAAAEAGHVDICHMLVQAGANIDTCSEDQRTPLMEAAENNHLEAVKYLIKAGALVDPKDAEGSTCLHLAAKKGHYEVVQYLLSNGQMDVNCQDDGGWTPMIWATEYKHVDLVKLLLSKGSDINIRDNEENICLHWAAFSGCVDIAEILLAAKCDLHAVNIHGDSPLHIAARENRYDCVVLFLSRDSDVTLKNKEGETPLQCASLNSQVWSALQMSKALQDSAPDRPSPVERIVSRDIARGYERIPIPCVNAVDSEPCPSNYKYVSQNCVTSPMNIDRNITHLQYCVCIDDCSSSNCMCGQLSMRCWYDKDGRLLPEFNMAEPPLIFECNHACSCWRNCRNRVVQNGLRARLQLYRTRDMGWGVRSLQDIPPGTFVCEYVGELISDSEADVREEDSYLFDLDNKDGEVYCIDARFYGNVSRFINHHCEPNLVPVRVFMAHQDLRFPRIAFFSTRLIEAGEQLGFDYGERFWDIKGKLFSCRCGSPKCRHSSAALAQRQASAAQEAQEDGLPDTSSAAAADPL

[1] = SILAC ratio, pull-down 3xMBT vs 3xMBTD355N
[2] = SILAC ratio DMSO/UNC0638 of protein pulled down with 3xMBT
[3] = SILAC ratio 3xMBT vs 3xMBTD355N pull-down, 293T cells, all values in log base 2
[4] = SILAC ratio DMSO relative to UNC0638, pull-down with 3xMBT, all values in log base 2

| Substance | Relative to UNC0638 UNC Heavy (G9a and GLP; [2]) | Relative to UNC0638 UNC Light (G9a and GLP; [2]) [log base 2] | Relative to UNC0638 Average (G9a and GLP) | Relative to UNC0638 UNC Heavy (G9a and GLP; [4]) [log base 2] | Relative to UNC0638 UNC Light (G9a and GLP; [4]) [log base 2] | Relative to UNC0638 Average (G9a and GLP; all values in log base 2) [log base 2] | 3xMBT/D355N UNC Heavy (3×MBT domain of L3MBTL1; [1]) | 3xMBT/D355N UNC Light (3×MBT domain of L3MBTL1; [1]) | 3xMBT/D355N UNC Heavy (3×MBT domain of L3MBTL1; [3]) [log base 2] | 3xMBT/D355N UNC Light (3×MBT domain of L3MBTL1; [3]) [log base 2] |
| --- | --- | --- | --- | --- | --- | --- | --- | --- | --- | --- |
| ILF2 | 0.15 log base 2 | 0.22 | 0.18 log base 2 |  |  |  | 3.72 log base 2 | 3.45 log base 2 |  |  |
| KHDRBS1 | 0.54 log base 2 | 0.19 | 0.37 log base 2 |  |  |  | 2.03 log base 2 | 2.82 log base 2 |  |  |
| LANCL1 | 0.14 log base 2 | 0.23 | 0.18 log base 2 |  |  |  | 1.33 log base 2 | 1.63 log base 2 |  |  |
| MCM6 | 0.10 log base 2 | 0.26 | 0.18 log base 2 |  |  |  | 2.48 log base 2 | 2.53 log base 2 |  |  |
| MCTS1 | 0.04 log base 2 | 0.20 | 0.12 log base 2 |  |  |  | 2.76 log base 2 | 2.56 log base 2 |  |  |
| NBN |  |  |  | −0.14 | −0.46 | −0.30 |  |  | 1.68 | 1.52 |
| NONO | 0.17 log base 2 | 0.16 | 0.17 log base 2 |  |  |  | 3.18 log base 2 | 3.75 log base 2 |  |  |

Now from value to substance, other results behind:

| Relative to UNC0638 UNC Heavy (G9a and GLP; [2]) | Relative to UNC0638 UNC Light (G9a and GLP; [2]) [log base 2] | Relative to UNC0638 Average (G9a and GLP) | Relative to UNC0638 UNC Heavy (G9a and GLP; [4]) [log base 2] | Relative to UNC0638 UNC Light (G9a and GLP; [4]) [log base 2] | Relative to UNC0638 Average (G9a and GLP; all values in log base 2) [log base 2] | Substance | 3xMBT/D355N UNC Heavy (3×MBT domain of L3MBTL1; [1]) | 3xMBT/D355N UNC Light (3×MBT domain of L3MBTL1; [1]) | 3xMBT/D355N UNC Heavy (3×MBT domain of L3MBTL1; [3]) [log base 2] | 3xMBT/D355N UNC Light (3×MBT domain of L3MBTL1; [3]) [log base 2] |
| --- | --- | --- | --- | --- | --- | --- | --- | --- | --- | --- |
| 0.17 log base 2 and 0.13 log base 2 | 0.10 | 0.13 log base 2 and 0.11 log base 2 |  |  |  | HNRNPK | 3.13 log base 2 and 2.55 log base 2 | 3.64 log base 2 and 3.36 log base 2 |  |  |
| 0.22 log base 2 | 0.28 | 0.25 log base 2 |  |  |  | HNRNPU | 2.16 log base 2 | 2.39 log base 2 |  |  |
| 0.35 log base 2 | 0.05 | 0.20 log base 2 |  |  |  | HSPA5 | 0.70 log base 2 | 2.32 log base 2 |  |  |
| 0.28 log base 2 | 0.06 | 0.17 log base 2 |  |  |  | HSPA8 | 2.05 log base 2 | 1.48 log base 2 |  |  |
|  |  |  | 0.63 | −0.72 | −0.04 | MAP4K5 |  |  | 1.69 | 0.87 |
| 0.36 log base 2 | 0.11 | 0.24 log base 2 |  |  |  | MDC1 | 2.31 log base 2 | 2.83 log base 2 |  |  |
|  |  |  | 0.04 | −1.45 | −0.70 | METTL3 |  |  | 3.18 | −0.51 |
| 0.61 log base 2 | −0.25 | 0.18 log base 2 |  |  |  | MK167 | 2.59 log base 2 | 2.26 log base 2 |  |  |
|  |  |  | 0.16 | 0.04 | 0.10 | MLLT4 |  |  | 3.31 | 2.39 |
| 0.52 log base 2 | −0.04 | 0.24 log base 2 |  |  |  | MPG | 1.39 log base 2 | 1.87 log base 2 |  |  |
